Test results as given in the supplement of paper PMC9170038.

Tests used:
[1] = tested on: MS2 coat protein; experiment: apparent KD of MS2 coat protein, switch OFF state (with FMN for OFF switches, without FMN for ON switches); designed switch direction (-1 OFF switch, 1 ON switch): -1; higher = weaker reporter binding; conditions: FMN input: 0 or 200 uM; Eterna round: R93 (includes R88 designs)
Procedure, shortened: (§1)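 SNAP-549-labelled MS2 coat protein was titrated onto designed RNA switches that had been transcribed on-chip from Illumina sequencing clusters. Amounts doubled from 0.7 or 1.5 nM to 3 µM in 100 mM Tris-HCl pH 7.5, 80 mM KCl, 4 mM MgCl2, with constant ligand or without. Apparent KD is the median per design of normalised cluster binding-curve fits.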

[2] = tested on: MS2 coat protein; experiment: apparent KD of MS2 coat protein, switch ON state; designed switch direction (-1 OFF switch, 1 ON switch): -1; higher = weaker reporter binding; conditions: FMN input: 0 or 200 uM; Eterna round: R93 (includes R88 designs)
Procedure, shortened: as §1

Sequence | apparent KD of MS2 coat protein [1] [nM] | apparent KD of MS2 coat protein [2] [nM]
GAGGUAUGAGGAUAUACAUAGAUACAGACACAUGUUCAAGUACAUGAGGAUCACCCAUGUAGAAGGCAUAUAUC [Mat - Same state - Mayanna Mod - D105] | 37.2 | 22
AAAAAAUCAGGAUAUACAUGAGGAUCACCCAUGUGAAAGAACGAUUAACGACCAGCAAGUAGAAGGGAUAAAAA [Ruby 81] | 19.7 | 18.1
AAGAACUGAGGAUAUACAAAAUAAAAGAAAAGAAAGAAAGAACAUGAGGAUCACCCAUGUAGAAGGUAGAAGAA [Maakherure Amenemhat IV] | 33.4 | 31.3
CAGUACUGAGGAUAUACAUGAGGAUCACCCAUGUGUUCCAGCUAGGAAACUAGCACAUGUAGAAGGCAGUACUG [Ex3: 826] | 16.8 | 187
AAAAAGUUAGGAUAUACAUGAGGAUCACCCAUGUACAUAUAUGGAGAAAAAAACAGUAGUAGAAGGGACAAAAA [EX2 Malc#12] | 19.8 | 20.6
AGGAAACAUGAGGAUCACCCAUGUGAGGAUAUUCAAAAGAAAAGAAAAGAAAGAAGAAGAAGAAGGCACAAGAA [Khayu] | 33.5 | 32.8
GGAAAGCAAGGAUAUGCAAACAAACAAACAAACAAAAGGGAACAUGAGGAUCACCCAUGUAGAAGGUGCAAACA [Exclusion 2 Two redone] | 28.6 | 41.9
CUUAUGUGAGGAUAUGUACAGAAAAAACUGGGUGUAACUGUACAGAAGGCACAUGAGGAUCACCCAUGUGCAAA [EX4 388: S S Pseudoknot 13] | 56.8 | 70.2
AUCAUGUAAGGAUAUACAAGAAAAGAAAAGAAAGAAAAGAAGUAGAAGGUACAUGAGGAUCACCCAUGUAAGAA [EteRNA is fun!] | 31.5 | 61
AGUUGGCGAGGAUAUACAUGAGGAUCACCCAUGUGAGAGAUAAAAGUGAGAAAGAAAAGUAGAAGGCGCUAACA [JL Lego Mod 20] | 262 | 45.6
CCUAUGUGAGGAUAUAGCCACAUUACGAAUAAGUAGUGUGGCUAGAAGGCACAUGAGGAUCACCCAUGUAUGGG [Exclusion 4.8 (GC closing FMN)] | 15.6 | 29.9
AAAUAGUUAGGAUAUACAUGAGGAUCACCCAUGUGCACUUAUGGAGAAUAGGGUAAUGGUAGAAGGGACUAAAA [EX2 Malc#21] | 39.7 | 36.2
AACUAGCUAGGAUAUACAUGAGGAUCACCCAUGUAAAAAAAAAAAAAAAGAUAUAUAUGUAGAAGGAGCUAGUA [Mod of Brourd] | 41.3 | 30.5
AAGAGACAUGAGGAUCACCCAUGUGAGGAUAUGACGUAAAUAAAGAAAGAAGAAAUCGUCAGAAGGCACACCAA [55%, Disencluded 2, 4] | 75.8 | 48.4
AAAAAACAUGAGGAUCACCCAUGUUAGGAUAUGCAGAGGGAAAAAAAAAAAAAAAAAAGCAGAAGGAACAUAAA [Design1] | 26.5 | 31.5
AACAGUACAGGAUAUACAUGAGGAUCACCCAUGUGACAAUUAAGUGGCGUACCACAGUGUAGAAGGGUACUGGA [Ruby 84] | 113 | 93.1
GAAAAGGCAGGAUAUACAGGAUAUAGAAGGAGGAUAUAGAGACAUGAGGAUCACCCAUGUAGAAGGGCCAAAAG [Diamond 80] | 113 | 48.3
AAGAAGUCAGGAUAUGCUAAAGAAAUAAAAAUAAAUAAAGAACAUGAGGAUCACCCAUGUAGAAGGGACAAGAA [Sewadjkare Hori] | 33.3 | 72.1
UAAAGGCGAGGAUAUACAUGAGGAUCACCCAUGUGAAUAAAUAAUAAAAUAAAAUAAAGUAGAAGGCGCAAUAA [LROPPY Exclusion 3 - v03_deltaG=1.9 break up As] | 43.2 | 53.9
